One block for each binder: values may come before it.
Assays:
[1] = biological target: T1, oncostatin M (125I-labeled) (UniProt P13725 26-221, limits assumed, radioiodinated (125I)); assay: 125I-oncostatin M binding to Fc fusion captured on Protein A beads
T1 construct: also called OSM; 125I-OSM
T1 sequence (looked up): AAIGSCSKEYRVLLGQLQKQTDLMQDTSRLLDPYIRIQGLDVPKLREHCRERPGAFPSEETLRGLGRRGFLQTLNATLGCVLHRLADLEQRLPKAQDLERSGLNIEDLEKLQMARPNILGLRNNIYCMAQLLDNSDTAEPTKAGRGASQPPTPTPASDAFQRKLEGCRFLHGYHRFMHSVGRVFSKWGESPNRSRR
Description: (§1) The transfected cells were cultured to allow expression and secretion of the fusion proteins into the culture medium. Cross-linked agarose beads bearing Protein A (Protein A Sepharose CL-4B, Pharmacia Biotech, Inc., Piscataway, N.J.) were added to the culture supernatants, whereupon the fusion proteins bound to the beads via the interaction of the Fc moiety with the Protein A. Radioiodinated oncostatin M or radioiodinated LIF was also added to the culture supernatants. Preparation of ¹²⁵I-oncostatin M is described in example 2 above. Among the known procedures for purifying and radioiodinating LIF are those described in example 1 of U.S. Pat. No. 5,284,755. The ¹²⁵I-LIF employed in this assay was recombinant human LIF labeled with 125I using the enzymobead reagent (BioRad).
(§2) The culture supernatants were incubated with the Protein A beads and ¹²⁵I-LIF or ¹²⁵I-oncostatin M for 18 hours at 4° C. Free and cell-bound ¹²⁵I-LIF or ¹²⁵i-oncostatin M were separated by low speed centrifugation through a single step density gradient of 3% glucose in PBS. The bead-bound radioiodinated proteins were quantified on a Packard Autogamma counter.

[2] = biological target: T2, recombinant human leukemia inhibitory factor (125I-labeled) (human, UniProt P15018 23-202, radioiodinated (125I)); assay: 125I-LIF binding to Fc fusion captured on Protein A beads
T2 construct: also called LIF; 125I-LIF
T2 sequence (P15018 23-202 limits assumed): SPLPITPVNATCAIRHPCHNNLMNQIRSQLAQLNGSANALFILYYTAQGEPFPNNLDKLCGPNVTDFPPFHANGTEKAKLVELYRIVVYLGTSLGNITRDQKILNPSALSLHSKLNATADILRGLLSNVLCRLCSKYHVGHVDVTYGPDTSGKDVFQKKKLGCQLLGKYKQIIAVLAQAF
Description: as §1, §2

[3] = biological target: T2, recombinant human leukemia inhibitory …; assay: 125I-LIF binding to Fc fusions captured on Protein A beads
Description: as §1, §2

binding result [1]: no binding
binding result [2]: no binding
B1: soluble OSM-Rβ/Fc fusion protein (Fc fusion)
chain: ERLPLTPVSLKVSTNSTRQSLHLQWTVHNLPYHQELKMVFQIQISRIETSNVIWVGNYSTTVKWNQVLHWSWESELPLECATHFVRIKSLVDDAKFPEPNFWSNWSSWEEVSVQDSTGQDILFVFPKDKLVEEGTNVTICYVSRNIQNNVSCYLEGKQIHGEQLDPHVTAFNLNSVPFIRNKGTNIYCEASQGNVSEGMKGIVLFVSKVLEEPKDFSCETEDFKTLHCTWDPGTDTALGWSKQPSQSYTLFESFSGEKKLCTHKNWCNWQITQDSQETYNFTLIAENYLRKRSVNILFNLTHRVYLMNPFSVNFENVNATNAIMTWKVHSIRNNFTYLCQIELHGEGKMMQYNVSIKVNGEYFLSELEPATEYMARVRCADASHFWKWSEWSGQNFTTLEAAPSEAPDVWRIVSLEPGNHTVTLFWKPLSKLVEPRSCDKTHTCPPCPAPELLGGPSVFLFPPKPKDTLMISRTPEVTCVVVDVSHEDPEVKFNWYVDGVEVHNAKTKPREEQYNSTYRVVSVLTVLHQDWLNGKDYKCKVSNKALPAPMQKTISKAKGQPREPQVYTLPPSRDELTKNQVSLTCLVKGFYPRHIAVEWESNGQPENNYKTTPPVLDSDGSFFLYSKLTVDKSRWQQGNVFSCSVMHEALHNHYTQKSLSLSPGK
notes: Truncated extracellular domain of OSM-Rβ; Tested from culture supernatant, captured on Protein A beads; also called experiment D

binding result [2]: no binding
B2: soluble human gp130/Fc fusion protein (Fc fusion)
chain: ELLDPCGYISPESPVVQLHSNFTAVCVLKEKCMDYFHVNANYIVWKTNHFTIPKEQYTIINRTASSVTFTDIASLNIQLTCNILTFGQLEQNVYGITIISGLPPEKPKNLSCIVNEGKKMRCEWDGGRETHLETNFTLKSEWATHKFADCKAKRDTPTSCTVDYSTVYFVNIEVWVEAENALGKVTSDHINFDPVYKVKPNPPHNLSVINSEELSSILKLTWTNPSIKSVIILKYNIQYRTKDASTWSQIPPEDTASTRSSFTVQDLKPFTEYVFRIRCMKEDGKGYWSDWSEEASGITYEDRPSKAPSFWYKIDPSHTQGYRTVQLVWKTLPPFEANGKILDYEVTLTRWKSHLQNYTVNATKLTVNLTNDRYLATLTVRNLVGKSDAAVLTIPACDFQATHPVMDLKAFPKDNMLWVEWTTPRESVKKYILEWCVLSDKAPCITDWQQEDGTVHRTYLRGNLAESKCYLITVTPVYADGPGSPESIKAYLKQAPPSKGPTVRTKKVGKNEAVLEWDQLPVDVQNGFIRNYTIFYRTIIGNETAVNVDSSHTEYTLSSLTSDTLYMVRMAAYTDEGGKDGPEPRSCDKTHTCPPCPAPELLGGPSVFLFPPKPKDTLMISRTPEVTCVVVDVSHEDPEVKFNWYVDGVEVHNAKTKPREEQYNSTYRVVSVLTVLHQDWLNGKDYKCKVSNKALPAPMQKTISKAKGQPREPQVYTLPPSRDELTKNQVSLTCLVKGFYPRHIAVEWESNGQPENNYKTTPPVLDSDGSFFLYSKLTVDKSRWQQGNVFSCSVMHEALHNHYTQKSLSLSPGK
notes: Tested from culture supernatant, captured on Protein A beads; also called soluble gp130/Fc; experiment B; not shown: 7 amino acid peptide linker encoded by the polylinker of plasmid hIgG1Fc

binding result [3]: no binding
B3: proteins expressed by cells co-transfected with vectors encoding soluble OSM-Rβ/Fc and soluble gp130/Fc (Fc fusion)
chain 1: B1 chain
chain 2: B2 chain
notes: also called OSM-Rβ/Fc and gp130/Fc; experiment F; not shown: 7 amino acid peptide linker encoded by the polylinker of plasmid hIgG1Fc
